Measurements taken from article PMC2875725.

Target: HCV NS5B RNA-dependent RNA polymerase (Hepatitis C virus (strain ), UniProt Q9WMX2 2421-3010)
Assay: protein chip with QD fluorescence

Chain of HCV NS5B RNA-dependent RNA polymerase (Q9WMX2 2421-3010): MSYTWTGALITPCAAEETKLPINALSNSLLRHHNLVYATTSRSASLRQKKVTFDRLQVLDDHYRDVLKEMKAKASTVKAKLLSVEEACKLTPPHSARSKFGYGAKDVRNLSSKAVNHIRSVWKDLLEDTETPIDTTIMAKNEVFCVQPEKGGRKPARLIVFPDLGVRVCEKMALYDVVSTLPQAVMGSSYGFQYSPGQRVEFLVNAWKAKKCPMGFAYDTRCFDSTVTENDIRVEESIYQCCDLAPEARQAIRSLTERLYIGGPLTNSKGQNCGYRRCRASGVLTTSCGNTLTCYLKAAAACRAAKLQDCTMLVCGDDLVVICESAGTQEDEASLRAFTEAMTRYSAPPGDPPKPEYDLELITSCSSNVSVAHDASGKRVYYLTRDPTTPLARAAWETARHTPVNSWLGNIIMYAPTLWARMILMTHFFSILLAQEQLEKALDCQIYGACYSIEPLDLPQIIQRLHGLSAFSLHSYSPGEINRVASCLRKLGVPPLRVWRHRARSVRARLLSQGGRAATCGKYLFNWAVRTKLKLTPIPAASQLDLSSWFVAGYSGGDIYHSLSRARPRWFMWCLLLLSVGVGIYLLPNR

CCCCACAUUCUCACCCCCUC (ssRNA, 5'-amine) [NS5Bmut RNA oligonucleotide]: no binding.
